Laboratory results reported in the supplement of paper PMC7877785.
± gives the uncertainty stated by the source.

Assay: self-splicing fitness, log relative to wild type (ln ratio); higher = more splicing; Tetrahymena group I intron in knt gene, E. coli kanamycin selection, DiMSum; sequences stand for … in CUCUCU…GGAGGGAAAAGUUAUCAGGCAUGCACCUGGUAGCUAGUCUUUAAACCAAUAGAUUGCAUCGGUUUAAAAGGCAAGACCGUCAAAUUGCGGGAAAGGGGUCAACAGCCGUUCAGUACCAAGUCUCAGGGGAAACUUUGAGAUGGCCUUGCAAAGGGUAUGGUAAUAAGCUGACGGACAUGGUCCUAACCACGCAGCCAAGUCCUAAGUCAACAGAUCUUCUGUUGAUAUGGAUGCAGUUCACAGACUAAAUGUCGGUCGGGGAAGAUGUAUUCUUCUCAUAAGAUAUAGUCGGACCUCUCCUUAAUGGGAGCUAGCGGAUGAAGUGAUGCAACACUGGAGCCGCUGGGAACUAAUUUGUAUGCGAAAGUAUAUUGAUUAGUUUUGGAGUACUCGUGGUCG
Summary of the method: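 Library with all eight P1ex-region intron nucleotides randomised, intron inside the knt kanamycin-resistance gene on pET-22b(+), in E. coli BL21(DE3). Cells grew overnight at 37°C or 30°C on LB agar with or without 25 μg/mL kanamycin (plus 100 μg/mL carbenicillin, 50 μM IPTG, 0.2% rhamnose), in six replicate transformations. Pooled colonies were amplicon-sequenced on Illumina HiSeq 2500. DiMSum fitness is the error-weighted combination of wild-type-normalised replicate fold changes, kanamycin versus none.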

| Sequence | self-splicing fitness (ln) (30 °C) | self-splicing fitness (ln) (37 °C) |
| --- | --- | --- |
| AUCCAGCAAUAUUACGCAGG | -2.84 ± 0.3 | -2.7 ± 0.37 |
| AUCCAGCAAUAUUACGCAUU | -1.37 ± 0.064 | -0.265 ± 0.082 |
| AUCCAGCAAUAUUACGCCCG | -1.84 ± 0.38 | -1.04 ± 0.37 |
| AUCCAGCAAUAUUACGCUGC | -3.85 ± 0.19 | -1.59 ± 0.15 |
| AUCCAGCAAUAUUACGGAGG | -2.21 ± 0.097 | -0.607 ± 0.13 |
| AUCCAGCAAUAUUACGGAUU | -3.25 ± 0.12 | -2.83 ± 0.21 |
| AUCCAGCAAUAUUACGGCGC | -0.203 ± 0.1 | -0.114 ± 0.14 |
| AUCCAGCAAUAUUACGGGUU | -3.75 ± 0.15 | -2.89 ± 0.21 |
| AUCCAGCAAUAUUACGGUAG | -3.97 ± 0.2 | -2.6 ± 0.15 |
| AUCCAGCAAUAUUACGGUGC | -1.6 ± 0.096 | -1.27 ± 0.14 |
| AUCCAGCAAUAUUACGUAAA | -1.3 ± 0.064 | -0.843 ± 0.093 |
| AUCCAGCAAUAUUACGUACA | -1.28 ± 0.11 | -0.729 ± 0.18 |
| AUCCAGCAAUAUUACGUACU | -1.56 ± 0.14 | -0.416 ± 0.15 |
| AUCCAGCAAUAUUACGUCGA | -0.897 ± 0.097 | -0.557 ± 0.12 |
| AUCCAGCAAUAUUACGUGAC | -1.03 ± 0.077 | -0.702 ± 0.11 |
| AUCCAGCAAUAUUACGUUAC | -3.89 ± 0.24 | -2.59 ± 0.22 |
| AUCCAGCAAUAUUACGUUUU | -2.04 ± 0.083 | -1.15 ± 0.11 |
| AUCGAGCAAUAUUACGAAAC | -2.27 ± 0.31 | – |
| AUCGAGCAAUAUUACGAAAU | -2.63 ± 0.37 | -1.87 ± 0.46 |
| AUCGAGCAAUAUUACGACUA | -1.54 ± 0.24 | -0.741 ± 0.15 |
| AUCGAGCAAUAUUACGAGAU | -2.58 ± 0.13 | -2.01 ± 0.17 |
| AUCGAGCAAUAUUACGAGGA | -1.16 ± 0.4 | -2.07 ± 0.31 |
| AUCGAGCAAUAUUACGAGUG | -3.32 ± 0.3 | -2.09 ± 0.32 |
| AUCGAGCAAUAUUACGAUGC | -2.77 ± 0.47 | -1.77 ± 0.42 |

| Sequence | self-splicing fitness (ln) (30 °C) | self-splicing fitness (ln) (37 °C) |
| --- | --- | --- |
| AUCGAGCAAUAUUACGCUGC | -2.59 ± 0.45 | – |
| AUCGAGCAAUAUUACGGACG | -2.42 ± 0.17 | -2.96 ± 0.2 |
| AUCGAGCAAUAUUACGGCGA | -1.24 ± 0.18 | -0.629 ± 0.17 |
| AUCGAGCAAUAUUACGUCCU | -1.18 ± 0.11 | -0.423 ± 0.18 |
| AUCGAGCAAUAUUACGUCUU | -2.79 ± 0.12 | -1.41 ± 0.12 |
| AUCGAGCAAUAUUACGUGAG | -1.78 ± 0.11 | -1.53 ± 0.15 |
| AUCGAGCAAUAUUACGUGGA | -3.68 ± 0.37 | -2.33 ± 0.22 |
| AUCGAGCAAUAUUACGUUGU | -4 ± 0.26 | -3.62 ± 0.31 |
| AUCGAGCAAUAUUACGUUUA | -2.49 ± 0.29 | -2.26 ± 0.37 |
| AUCUAGCAAUAUUACGAAUG | -2.37 ± 0.18 | -0.667 ± 0.19 |
| AUCUAGCAAUAUUACGACCC | -0.615 ± 0.21 | 0.543 ± 0.31 |
| AUCUAGCAAUAUUACGACUG | -2.01 ± 0.14 | -1.07 ± 0.15 |
| AUCUAGCAAUAUUACGAGCC | -2.69 ± 0.45 | – |
| AUCUAGCAAUAUUACGAGGG | -2.92 ± 0.16 | -2.18 ± 0.18 |
| AUCUAGCAAUAUUACGAGUA | -2.58 ± 0.27 | -1.53 ± 0.18 |
| AUCUAGCAAUAUUACGAUAA | -2.1 ± 0.22 | -1.1 ± 0.3 |
| AUCUAGCAAUAUUACGAUGG | -3.59 ± 0.2 | -1.75 ± 0.19 |
| AUCUAGCAAUAUUACGAUUC | -2.85 ± 0.18 | -1.23 ± 0.16 |
| AUCUAGCAAUAUUACGCAGU | -2.53 ± 0.18 | -2.09 ± 0.2 |
| AUCUAGCAAUAUUACGCCAU | -2.72 ± 0.2 | -1.05 ± 0.15 |
| AUCUAGCAAUAUUACGCCCA | -0.101 ± 0.29 | -1.32 ± 0.24 |
| AUCUAGCAAUAUUACGCCCG | -0.765 ± 0.38 | -0.733 ± 0.3 |
| AUCUAGCAAUAUUACGGAGU | -2.61 ± 0.28 | -1.52 ± 0.2 |
| AUCUAGCAAUAUUACGGCGU | -0.0812 ± 0.084 | 0.429 ± 0.1 |

| Sequence | self-splicing fitness (ln) (30 °C) | self-splicing fitness (ln) (37 °C) |
| --- | --- | --- |
| AUCUAGCAAUAUUACGGGAU | -2.92 ± 0.2 | -2.28 ± 0.22 |
| AUCUAGCAAUAUUACGGGUA | -1.97 ± 0.15 | -1.49 ± 0.12 |
| AUCUAGCAAUAUUACGGUAC | -2.16 ± 0.11 | -2.44 ± 0.14 |
| AUCUAGCAAUAUUACGUAUU | -2.56 ± 0.15 | -2.08 ± 0.19 |
| AUCUAGCAAUAUUACGUCUA | -2.83 ± 0.25 | -1.59 ± 0.21 |
| AUCUAGCAAUAUUACGUGCC | -2.47 ± 0.23 | -1.08 ± 0.15 |
| AUCUAGCAAUAUUACGUGCG | -1.47 ± 0.21 | -0.647 ± 0.17 |
| AUCUAGCAAUAUUACGUGGG | -2.22 ± 0.18 | -2.42 ± 0.27 |
| AUCUAGCAAUAUUACGUUUG | -3.39 ± 0.28 | -2.04 ± 0.37 |
| AUCUAGCAAUAUUACGUUUU | -2.93 ± 0.11 | -1.93 ± 0.12 |
| AUGAAGCAAUAUUACGAAUG | -1.25 ± 0.095 | -0.913 ± 0.1 |
| AUGAAGCAAUAUUACGACAC | 0.0739 ± 0.12 | -0.0401 ± 0.14 |
| AUGAAGCAAUAUUACGACUU | -0.222 ± 0.099 | -0.0268 ± 0.12 |
| AUGAAGCAAUAUUACGAUCC | -0.571 ± 0.11 | 0.455 ± 0.16 |
| AUGAAGCAAUAUUACGCAAC | -1.28 ± 0.16 | -1.13 ± 0.16 |
| AUGAAGCAAUAUUACGCAGC | -2.75 ± 0.24 | -0.841 ± 0.38 |
| AUGAAGCAAUAUUACGCAUU | -3.78 ± 0.43 | -2.52 ± 0.31 |
| AUGAAGCAAUAUUACGCGUG | -0.281 ± 0.066 | -0.171 ± 0.099 |
| AUGAAGCAAUAUUACGCUAA | -1.32 ± 0.1 | -0.00859 ± 0.13 |
| AUGAAGCAAUAUUACGGAAU | -0.972 ± 0.074 | -0.789 ± 0.091 |
| AUGAAGCAAUAUUACGGCCU | 0.063 ± 0.094 | 0.456 ± 0.13 |
| AUGAAGCAAUAUUACGGGCG | -0.667 ± 0.081 | 0.118 ± 0.1 |
| AUGAAGCAAUAUUACGGGCU | -1.52 ± 0.11 | -0.445 ± 0.13 |
| AUGAAGCAAUAUUACGUCUU | -2.04 ± 0.081 | -1.44 ± 0.087 |

| Sequence | self-splicing fitness (ln) (30 °C) | self-splicing fitness (ln) (37 °C) |
| --- | --- | --- |
| AUGAAGCAAUAUUACGUUGC | -3.64 ± 0.2 | -3.01 ± 0.26 |
| AUGAAGCAAUAUUACGUUGG | -2.72 ± 0.16 | -1.58 ± 0.2 |
| AUGCAGCAAUAUUACGAACC | -1.17 ± 0.17 | -0.688 ± 0.21 |
| AUGCAGCAAUAUUACGAACU | -0.238 ± 0.1 | 0.379 ± 0.11 |
| AUGCAGCAAUAUUACGAAGA | -1.8 ± 0.18 | -2.36 ± 0.27 |
| AUGCAGCAAUAUUACGACAG | -0.0726 ± 0.086 | -0.339 ± 0.16 |
| AUGCAGCAAUAUUACGACCA | -1.45 ± 0.17 | -0.579 ± 0.18 |
| AUGCAGCAAUAUUACGACGG | -1.74 ± 0.11 | -1.41 ± 0.14 |
| AUGCAGCAAUAUUACGAGCA | -0.52 ± 0.089 | -0.627 ± 0.097 |
| AUGCAGCAAUAUUACGAUGA | -1.93 ± 0.16 | -1.04 ± 0.14 |
| AUGCAGCAAUAUUACGAUGU | -0.358 ± 0.061 | 0.146 ± 0.085 |
| AUGCAGCAAUAUUACGAUUG | -2.67 ± 0.2 | -2.83 ± 0.32 |
| AUGCAGCAAUAUUACGCACU | -0.148 ± 0.12 | 0.309 ± 0.16 |
| AUGCAGCAAUAUUACGCCCC | -0.386 ± 0.27 | -1.04 ± 0.27 |
| AUGCAGCAAUAUUACGCGAA | -1.76 ± 0.13 | -1.03 ± 0.11 |
| AUGCAGCAAUAUUACGCGGA | -2.88 ± 0.11 | -0.559 ± 0.069 |
| AUGCAGCAAUAUUACGCGUA | -2.09 ± 0.18 | -1.71 ± 0.2 |
| AUGCAGCAAUAUUACGCUAU | -2 ± 0.12 | -1.33 ± 0.14 |
| AUGCAGCAAUAUUACGGCUU | -0.164 ± 0.072 | 0.254 ± 0.085 |
| AUGCAGCAAUAUUACGUACA | -0.892 ± 0.064 | -0.686 ± 0.076 |
| AUGCAGCAAUAUUACGUCAA | -2.35 ± 0.19 | -0.997 ± 0.14 |
| AUGCAGCAAUAUUACGUCCU | 0.0695 ± 0.095 | 0.786 ± 0.11 |
| AUGCAGCAAUAUUACGUCGG | -2.43 ± 0.22 | -1.91 ± 0.26 |
| AUGCAGCAAUAUUACGUGAU | -1.76 ± 0.067 | -0.91 ± 0.08 |
